From US9181340B2, “TEM8 antibodies, conjugates thereof, and their use” (The United States of America, as represented by the …, priority 2011, dated 2015)

B1: L5-mIgG2a: mouse/human chimeric anti-TEM8 IgG: human L5 variable domains fused with mouse IgG2a constant domains (antibody, V domains shown)
VH: QVQLVESGGGLVQPGGSLRLSCAASGFTFNSYGLSWVRQAPGKGLEWVSNISSNGSYTYYADSVKGRFTISRDNSKNTLYLQMNSLRAEDTAVYYCARAGYGLFDVWGQGTLVTVSSVL
VL: DIELTQPPSVSVAPGQTARISCSGDKLREYYVHWYQQKPGQAPVLVIYGDNKRPSGIPERFSGSNSGNTATLTISGTQAEDEADYYCSSWAGSRSGTVFGGGTKLTVL

Experiments:
NCI-H460 tumors = assay: NCI-H460 lung cancer xenograft in nude mice; type: in vivo, mouse; conditions: L2-mIgG2a 20 mg/kg 3 times per week; DMXAA 25 mg/kg then 5 mg/kg/day for two days; tumors 100 mm^3
[1] = system: CHO-TEM8 cells treated with lethal toxin; type: cell-based, Chinese Hamster
human TEM8 (CHO-TEM8) = human TEM8 (CHO-TEM8) (Homo sapiens, UniProt Q9H6X2); assay: Flow cytometry staining of CHO-TEM8 cells; type: binding
Chain of human TEM8 (CHO-TEM8) (Q9H6X2 33-564): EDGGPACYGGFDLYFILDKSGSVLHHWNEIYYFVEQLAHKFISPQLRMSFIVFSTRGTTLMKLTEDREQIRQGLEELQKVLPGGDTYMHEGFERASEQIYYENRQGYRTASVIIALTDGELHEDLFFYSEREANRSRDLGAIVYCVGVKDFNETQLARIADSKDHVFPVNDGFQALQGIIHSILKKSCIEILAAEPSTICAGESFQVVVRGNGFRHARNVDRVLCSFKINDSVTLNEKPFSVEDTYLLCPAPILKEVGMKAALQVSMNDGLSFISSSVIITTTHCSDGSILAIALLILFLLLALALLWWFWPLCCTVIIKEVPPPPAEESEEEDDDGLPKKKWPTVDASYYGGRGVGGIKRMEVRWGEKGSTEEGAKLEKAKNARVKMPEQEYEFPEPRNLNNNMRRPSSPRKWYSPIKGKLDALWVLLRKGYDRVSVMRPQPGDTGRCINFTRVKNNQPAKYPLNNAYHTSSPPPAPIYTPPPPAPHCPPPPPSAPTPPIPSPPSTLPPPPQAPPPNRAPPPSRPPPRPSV
Method: (§1) Trypsinized cells were rinsed in cold PBS/0.5% BSA (PBS/BSA) and labeled with anti-TEM8 Fabs (human) or full IgG (human-mouse) primary antibodies in PBS/BSA containing 10% goat serum at 4° C. Cells were rinsed with PBS/BSA and incubated with FITC-conjugated goat anti-human Fab or anti-mouse IgG secondary antibodies (Jackson Immunoresearch, West Grove, Pa.), rinsed again, and analyzed on a FACScalibur flow cytometer (Becton Dickinson, Franklin Lakes, N.J.) using CellQuest™ Software.

HCT-116 tumors = assay: HCT-116 colon xenograft in nude mice; conditions: treatment 3 times per week from 50 mm^3
CMG2 (CHO-CMG2) = CMG2 (CHO-CMG2) (Homo sapiens, UniProt P58335); assay: Flow cytometry staining of CHO-CMG2 cells; type: binding; conditions: CMG2 transfectants of CHO/PR230
Chain of CMG2 (CHO-CMG2) (P58335 34-489, species assumed): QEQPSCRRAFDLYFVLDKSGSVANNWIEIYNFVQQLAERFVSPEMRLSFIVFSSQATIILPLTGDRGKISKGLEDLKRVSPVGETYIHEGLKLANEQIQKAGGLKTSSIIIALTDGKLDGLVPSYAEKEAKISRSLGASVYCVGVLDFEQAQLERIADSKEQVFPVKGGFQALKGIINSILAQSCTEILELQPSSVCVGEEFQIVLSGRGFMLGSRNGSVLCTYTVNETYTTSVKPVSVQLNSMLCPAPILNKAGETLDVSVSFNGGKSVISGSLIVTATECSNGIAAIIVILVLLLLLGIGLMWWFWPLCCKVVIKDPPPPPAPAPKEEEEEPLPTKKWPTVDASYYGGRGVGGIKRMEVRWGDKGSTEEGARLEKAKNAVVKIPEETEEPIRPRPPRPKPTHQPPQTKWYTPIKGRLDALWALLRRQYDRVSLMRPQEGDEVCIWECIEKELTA
Method: as §1

[2] = system: UACC human melanoma xenografts; assay: UACC melanoma xenograft in nude mice; type: in vivo, mouse; conditions: dose-escalation study, 15 mg/kg 3× per week

Molecule	NCI-H460 tumor growth (NCI-H460 tumors)	EC50 of protection from lethal toxin toxicity [1] [µg/mL]	staining of CHO-TEM8 cells (human TEM8 (CHO-TEM8))	HCT-116 tumor growth (HCT-116 tumors)	reactivity with CMG2 (CMG2 (CHO-CMG2))	UACC tumor growth inhibition at 15 mg/kg [2]
Cc1ccc2c(=O)c3cccc(CC(=O)O)c3oc2c1C [DMXAA, 5,6-dimethylxanthenone-4-acetic acid, reference compound]	significantly delayed tumor growth	–	–	–	–	–
B1	–	2.575	stained	inhibited HCT-116 tumor growth	failed to react with CMG2	partial growth inhibition
